Measured values published in paper PMC8984176, “Tuftsin: A Natural Molecule Against SARS-CoV-2 Infection” (Frontiers in Molecular Biosciences, 2022).

Experiments:
[1] = target: recombinant human ACE2 protein (human) (UniProt Q9BYF1); assay: SPR; Biacore T200; ACE2 or NRP1 amine-coupled on a CM5 chip (about 10,000 RU); tuftsin flowed at gradient concentrations; 25°C, 30 µl/min; 1×PBS, 0.05% Tween 20, 5% dimethyl sulfoxide, pH 7.4; steady state affinity model
[2] = target: recombinant human NRP1 protein (human) (UniProt O14786); assay: as above

Chain of recombinant human ACE2 protein (human) (Q9BYF1 18-740): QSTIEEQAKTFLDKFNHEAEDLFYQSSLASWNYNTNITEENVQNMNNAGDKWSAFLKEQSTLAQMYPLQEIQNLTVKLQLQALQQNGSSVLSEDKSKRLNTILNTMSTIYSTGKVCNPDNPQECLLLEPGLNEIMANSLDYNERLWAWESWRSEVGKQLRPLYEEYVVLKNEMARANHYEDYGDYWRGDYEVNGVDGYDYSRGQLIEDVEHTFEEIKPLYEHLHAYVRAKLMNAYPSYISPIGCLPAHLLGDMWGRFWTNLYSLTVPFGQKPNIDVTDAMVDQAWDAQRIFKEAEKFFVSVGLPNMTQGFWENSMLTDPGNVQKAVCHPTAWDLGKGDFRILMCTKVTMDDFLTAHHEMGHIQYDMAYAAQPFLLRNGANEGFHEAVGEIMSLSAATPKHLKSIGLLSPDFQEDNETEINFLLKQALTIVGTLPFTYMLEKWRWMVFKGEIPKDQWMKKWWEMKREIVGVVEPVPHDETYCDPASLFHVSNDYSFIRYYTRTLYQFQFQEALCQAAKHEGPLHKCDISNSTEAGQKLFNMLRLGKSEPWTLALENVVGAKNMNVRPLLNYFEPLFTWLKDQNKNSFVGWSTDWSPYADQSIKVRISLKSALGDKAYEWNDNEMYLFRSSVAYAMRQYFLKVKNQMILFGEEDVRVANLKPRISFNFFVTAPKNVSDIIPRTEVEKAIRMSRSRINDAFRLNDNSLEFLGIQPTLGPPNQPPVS

- Kd [1]: 460 µM
- Kd [2]: 10.7 µM
Substance: tuftsin (peptide)
